In article PMC5974087, “The RPAP3-Cterminal domain identifies R2TP-like quaternary chaperones” (Nature Communications, 2018):

Molecular target: T1, recombinant RUVBL1-RUVBL2 complex (His_RUVBL1_Flag_RUVBL2) (human, UniProt Q9Y265 1-456; Q9Y230 1-463)
T1 construct: Purified predominantly as a dodecamer; hetero-hexamers and hetero-dodecamers in native MS; the SPR fit counts one hexamer; The methods tell different things of the RUVBL2 tag (N-terminal FLAG with TEV site; 3xFLAG in the NMR methods); also called RUVBL1/2; RUVBL1/2 hetero-multimers; source: E. coli (DE3), co-expressed, purified (HisTrap, anti-Flag M2 gel, Superdex S200, Superose 6); not shown: …
T1 sequence (Q9Y265 whole entry, chain 1 of 2): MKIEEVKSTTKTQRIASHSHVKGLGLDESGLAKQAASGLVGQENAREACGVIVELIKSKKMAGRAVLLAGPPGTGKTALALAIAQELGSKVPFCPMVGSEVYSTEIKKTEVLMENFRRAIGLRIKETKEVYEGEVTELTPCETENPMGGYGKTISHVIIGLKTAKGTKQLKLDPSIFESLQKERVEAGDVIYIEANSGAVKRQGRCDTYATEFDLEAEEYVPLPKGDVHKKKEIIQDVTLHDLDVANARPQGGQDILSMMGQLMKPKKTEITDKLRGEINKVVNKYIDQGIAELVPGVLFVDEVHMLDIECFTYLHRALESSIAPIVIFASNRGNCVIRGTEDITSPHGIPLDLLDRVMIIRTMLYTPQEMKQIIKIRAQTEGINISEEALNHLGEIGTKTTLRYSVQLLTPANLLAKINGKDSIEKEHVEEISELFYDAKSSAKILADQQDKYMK
T1 sequence (Q9Y230 whole entry, chain 2 of 2): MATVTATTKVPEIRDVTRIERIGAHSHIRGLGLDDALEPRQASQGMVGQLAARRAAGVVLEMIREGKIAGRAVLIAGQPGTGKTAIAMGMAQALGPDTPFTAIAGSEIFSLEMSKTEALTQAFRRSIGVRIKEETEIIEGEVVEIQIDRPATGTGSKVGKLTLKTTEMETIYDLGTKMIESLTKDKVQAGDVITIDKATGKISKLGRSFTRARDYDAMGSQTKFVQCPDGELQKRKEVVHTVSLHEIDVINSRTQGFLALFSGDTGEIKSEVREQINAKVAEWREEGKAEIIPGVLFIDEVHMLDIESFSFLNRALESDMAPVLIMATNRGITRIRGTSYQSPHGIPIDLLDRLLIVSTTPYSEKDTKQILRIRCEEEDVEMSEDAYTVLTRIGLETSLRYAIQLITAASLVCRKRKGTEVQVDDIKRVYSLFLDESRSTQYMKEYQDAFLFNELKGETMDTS
Assay: SPR; RPAP3-Cter amine-coupled on CM5; RUVBL1-RUVBL2 complex injected, 10 concentrations up to 75.2 nM; 20 mM NaKPi pH 7.5, 150 mM NaCl, 5 mM MgCl2, 1 mM DTT, 0.05% P20; 25 °C; 1:1 Langmuir model counting one hexamer of RUVBL1/2; Biacore 4000
Details: both partners purified

Kd: 4.18 nM
koff: 0.00112 s⁻¹
kon: 297000 M⁻¹ s⁻¹
B1: RPAP3_(535-665), C-terminal domain of human RPAP3 (domain or fragment, UniProt Q9H6T3 535-665, looked up)
chain: AQFATTVLPPIPANSFQLESDFRQLKSSPDMLYQYLKQIEPSLYPKLFQKNLDPDVFNQIVKILHDFYIEKEKPLLIFEILQRLSELKRFDMAVMFMSETEKKIARALFNHIDKSGLKDSSVEELKKRYGG
modifications: 13C/15N isotope labelling in the NMR samples
notes: RPAP3, human, residues 535-665; numbering of isoform 1; Vector pnEA-3CH; also called RPAP3-Cter; RPAP3 C-terminal domain; source: E. coli (DE3) pRARE2, purified (TALON, HRV-3C cleavage, S75 size exclusion)
